Legend:
4-1BBL (Homo sapiens) = 4-1BBL (Homo sapiens) (UniProt P41273); conditions: cited from earlier work
[1] = target: mouse 4-1BB–Fc protein (mouse) (UniProt P20334); assay: SPR; BIAcore X100; siglec-4–Fc or m4-1BB–Fc amine-coupled to CM5; h4-1BB–HIS or m-siglec-4–HIS flowed at 18 to 3000 nM in HBS-EP (10 mM Hepes pH 7.4, 150 mM NaCl, 3 mM EDTA, 0.05% P20); fitted with a 1:2 binding model
Sequence of mouse 4-1BB–Fc protein (mouse) (P20334 24-187): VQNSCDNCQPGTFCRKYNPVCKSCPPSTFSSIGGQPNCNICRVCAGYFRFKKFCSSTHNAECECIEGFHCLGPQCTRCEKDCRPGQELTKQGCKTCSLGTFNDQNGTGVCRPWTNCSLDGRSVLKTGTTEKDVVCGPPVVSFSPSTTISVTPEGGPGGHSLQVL

Sequence of 4-1BBL (Homo sapiens) (P41273 whole entry): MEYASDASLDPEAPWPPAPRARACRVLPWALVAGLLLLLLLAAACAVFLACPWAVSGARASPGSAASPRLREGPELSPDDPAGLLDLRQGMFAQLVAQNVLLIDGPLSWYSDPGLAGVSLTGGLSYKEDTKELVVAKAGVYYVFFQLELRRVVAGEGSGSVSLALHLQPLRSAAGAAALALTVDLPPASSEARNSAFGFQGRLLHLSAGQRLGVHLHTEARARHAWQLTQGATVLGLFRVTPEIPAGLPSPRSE
Sequence of 4-1BB (Q07011 24-255): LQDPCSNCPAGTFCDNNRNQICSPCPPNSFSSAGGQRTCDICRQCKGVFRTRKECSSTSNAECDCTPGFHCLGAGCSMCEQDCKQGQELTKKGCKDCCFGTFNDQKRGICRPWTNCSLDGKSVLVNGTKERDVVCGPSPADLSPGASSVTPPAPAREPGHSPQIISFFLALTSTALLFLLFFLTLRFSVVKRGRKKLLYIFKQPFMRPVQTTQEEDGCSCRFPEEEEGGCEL

| Substance | Kd (4-1BBL (Homo sapiens)) [nM] | Kd [1] [nM] |
| --- | --- | --- |
| 4-1BB (from UniProt Q07011) | 85.6 | – |
| mouse siglec-4–HIS protein (domain or fragment) | – | 860 |

From article PMC10866537
